Consider 2 molecules from article PMC3654228 (Nature communications, 2012).

As usually defined, the stoichiometry N is a count of units in the complex or per binding partner.

Data set [1] has as its target T1, Nxf1 (of the Nxf1:p15 used for gel filtration) (human, UniProt Q9UBU9 1-619).
T1 sequence (looked up): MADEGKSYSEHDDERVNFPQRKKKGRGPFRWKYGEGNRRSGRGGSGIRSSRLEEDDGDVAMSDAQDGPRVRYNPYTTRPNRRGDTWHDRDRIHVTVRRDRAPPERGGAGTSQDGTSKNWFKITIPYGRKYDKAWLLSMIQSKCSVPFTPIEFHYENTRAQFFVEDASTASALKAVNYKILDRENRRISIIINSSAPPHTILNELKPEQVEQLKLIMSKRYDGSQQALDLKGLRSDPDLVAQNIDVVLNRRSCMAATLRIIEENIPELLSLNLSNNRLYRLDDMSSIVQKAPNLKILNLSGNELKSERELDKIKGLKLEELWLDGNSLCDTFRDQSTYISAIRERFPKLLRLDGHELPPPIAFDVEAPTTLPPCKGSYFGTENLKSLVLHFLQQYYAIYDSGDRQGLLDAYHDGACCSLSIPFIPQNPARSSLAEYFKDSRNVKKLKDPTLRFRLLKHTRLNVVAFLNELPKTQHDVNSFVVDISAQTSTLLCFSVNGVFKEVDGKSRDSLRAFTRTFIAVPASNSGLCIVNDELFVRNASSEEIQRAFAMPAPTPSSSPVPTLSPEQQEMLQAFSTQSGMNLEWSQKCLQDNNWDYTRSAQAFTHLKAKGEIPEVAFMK
The experiment in a line: SEC. A general note: In gel filtration, larger molecules generally elute earlier.

For data set [2], the target named is GST-Nxf1:p15;Aly (Homo sapiens;, UniProt Q9UBU9;Q9UKK6;Q9JJW6 1-619;1-140;1-218, |). In words: GST pulldown then UV crosslinking.
In data set [3] the target is T2, 6His-RBD-psiRRM-LRR (Homo sapiens, UniProt Q9UBU9 1-372).
T2 sequence: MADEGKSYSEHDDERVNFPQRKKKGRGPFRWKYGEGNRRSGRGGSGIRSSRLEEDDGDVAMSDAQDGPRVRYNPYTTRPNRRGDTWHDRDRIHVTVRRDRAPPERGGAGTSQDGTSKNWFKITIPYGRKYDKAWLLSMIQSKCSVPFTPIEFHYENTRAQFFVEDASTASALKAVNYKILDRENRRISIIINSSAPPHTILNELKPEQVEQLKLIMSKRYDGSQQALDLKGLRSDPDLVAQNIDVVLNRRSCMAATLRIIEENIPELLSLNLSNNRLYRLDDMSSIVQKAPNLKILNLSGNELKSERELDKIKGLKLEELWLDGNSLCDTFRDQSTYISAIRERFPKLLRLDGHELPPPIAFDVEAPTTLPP
The experiment in a line: UV crosslinking.

Data set [4] deals with T3, GST-RBD-psiRRM-LRR (Homo sapiens, UniProt Q9UBU9 1-372).
T3 sequence: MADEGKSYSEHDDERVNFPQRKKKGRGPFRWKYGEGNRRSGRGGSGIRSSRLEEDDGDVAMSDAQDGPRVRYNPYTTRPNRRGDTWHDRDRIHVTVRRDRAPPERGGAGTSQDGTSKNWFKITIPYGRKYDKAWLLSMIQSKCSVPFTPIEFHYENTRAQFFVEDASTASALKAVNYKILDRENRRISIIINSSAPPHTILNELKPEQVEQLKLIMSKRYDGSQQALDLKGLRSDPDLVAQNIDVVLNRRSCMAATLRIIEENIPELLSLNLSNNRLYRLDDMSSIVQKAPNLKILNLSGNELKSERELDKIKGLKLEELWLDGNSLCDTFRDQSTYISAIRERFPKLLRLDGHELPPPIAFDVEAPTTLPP
In words: UV crosslinking.

Data set [5] concerns the target GST-Nxf1:p15;Aly;Thoc5 (Homo sapiens;;Homo sapiens?, UniProt Q9UBU9;Q9UKK6;Q9JJW6;Q13769 1-619;1-140;1-218;1-683, ||). The experiment in a line: GST pulldown then UV crosslinking.
Data set [6] deals with Aly (UniProt Q9JJW6 1-218). The experiment in a line: UV crosslinking.

B1: p15 (natural protein)
chain: MASVDFKTYVDQACRAAEEFVNVYYTTMDKRRRLLSRLYMGTATLVWNGNAVSGQESLSEFFEMLPSSEFQISVVDCQPVHDEATPSQTTVLVVICGSVKFEGNKQRDFNQNFILTAQASPSNTVWKIASDCFRFQDWAS
Consider B1, for which the “stoichiometry N” value in data set [1] was determined as 1.
With CAGUCGCAUAGUGCA (ssRNA) [15-mer RNA], the binding result in data set [2], in data set [3], in data set [4], in data set [5] and in data set [6] was “binds” throughout.
